According to publication PMC9352680, “A comprehensive thermodynamic model for RNA binding by the Saccharomyces cerevisiae Pumilio protein PUF4”:
Positions count from the first letter of the chain named. Names may count otherwise.

B1: Id_ii_S4_P4E.4_K4.3_C4.2_[C-2G]_[T-1C]_H4.3_A4.1_F4.1_T4.2_[G10T]_[T11A] (ssRNA)
RNA: UUUGACAACUGAUCGUUCUUUCUGCACACUAUUAUAUUCUUUCUCGAUCAGUUGUCUUU
B2: Id_ii_S4_P4E.4_K4.3_C4.2_[C-2G]_H4.3_A4.1_F4.1_T4.2_[G10A]_[T11A] (ssRNA)
RNA: B1 RNA with C25U, U35A
B3: Id_ii_S4_P4E.4_K4.3_C4.2_[T-1G]_H4.3_A4.1_F4.1_T4.2_[G10T] (ssRNA)
RNA: B1 RNA with G24C, C25G, A36U
B4: Id_ii_S4_P4E.4_K4.3_C4.2_H4.3_A4.1_F4.1_T4.2_[G10A]_[T11C] (ssRNA)
RNA: B1 RNA with G24C, C25U, U35A, A36C
B5: Id_ii_S4_P4E.4_K4.3_C4.2_[C-2G]_H4.3_A4.1_F4.1_T4.2_[G10A]_[T11C] (ssRNA)
RNA: B1 RNA with C25U, U35A, A36C
B6: Id_ii_S4_P4E.4_K4.3_C4.2_[C-2T]_[T-1C]_H4.3_A4.1_F4.1_T4.2_[G10T]_[T11C] (ssRNA)
RNA: B1 RNA with G24U, A36C
B7: Id_ii_S4_P4E.4_K4.3_C4.2_[T-1C]_H4.3_A4.1_F4.1_T4.2_[G10A] (ssRNA)
RNA: B1 RNA with G24C, U35A, A36U
B8: Id_ii_S4_P4E.4_K4.3_C4.2_[C-2G]_H4.3_A4.1_F4.1_T4.2_[G10T]_[T11A] (ssRNA)
RNA: B1 RNA with C25U
B9: Id_ii_S4_P4E.4_K4.3_C4.2_[C-2T]_[T-1C]_H4.3_A4.1_F4.1_T4.2_[G10A]_[T11C] (ssRNA)
RNA: B1 RNA with G24U, U35A, A36C
B10: Id_ii_S4_P4E.4_K4.3_C4.2_[C-2G]_H4.3_A4.1_F4.1_T4.2_[G10T] (ssRNA)
RNA: B1 RNA with C25U, A36U
B11: Id_ii_S4_P4E.4_K4.3_C4.2_[T-1C]_H4.3_A4.1_F4.1_T4.2_[G10T]_[T11A] (ssRNA)
RNA: B1 RNA with G24C
B12: Id_ii_S4_P5E.2_K5.1_C5.2_[C-2G]_[T-1C]_H5.1_A5.1_F5.1_T5.2_[T11A]_[A12T] (ssRNA)
RNA: UUUGACAACUGAUCGUUCUUUCUGCUGUAUUAUUAAUUUCUUUCUCGAUCAGUUGUCUUU
B13: Id_ii_S4_P5E.2_K5.1_C5.2_[C-2G]_[T-1C]_H5.1_A5.1_F5.1_T5.2_[A12C] (ssRNA)
RNA: B12 RNA with A36U, U37C
B14: Id_ii_S4_P5E.2_K5.1_C5.2_[C-2G]_H5.1_A5.1_F5.1_T5.2_[A12T] (ssRNA)
RNA: B12 RNA with C25U, A36U
B15: Id_ii_S4_P5E.2_K5.1_C5.2_[C-2G]_H5.1_A5.1_F5.1_T5.2_[T11A] (ssRNA)
RNA: B12 RNA with C25U, U37A
B16: Id_ii_S4_P4E.3_K4.2_C4.2_[C-2A]_[T-1A]_H4.2_A4.1_F4.1_T4.2_[G10C]_[T11G] (ssRNA)
RNA: UUUGACAACUGAUCGUUCUUUCUAAUAUAUAUUACGUUCUUUCUCGAUCAGUUGUCUUU
B17: Id_ii_S4_P4E.4_K4.3_C4.2_[C-2A]_H4.3_A4.1_F4.1_T4.2_[G10A] (ssRNA)
RNA: B1 RNA with G24A, C25U, U35A, A36U
B18: Id_ii_S4_P4E.3_K4.2_C4.2_H4.2_A4.1_F4.1_T4.2_[T11C] (ssRNA)
RNA: B16 RNA with A24C, A25U, C35G, G36C
B19: Id_ii_S4_P4E.4_K4.3_C4.2_[C-2T]_[T-1A]_H4.3_A4.1_F4.1_T4.2_[G10T]_[T11A] (ssRNA)
RNA: B1 RNA with G24U, C25A
B20: Id_ii_S4_P4E.3_K4.2_C4.2_[C-2A]_H4.2_A4.1_F4.1_T4.2_[G10C]_[T11A] (ssRNA)
RNA: B16 RNA with A25U, G36A
B21: Id_ii_S4_P4E.3_K4.2_C4.2_H4.2_A4.1_F4.1_T4.2_[G10T]_[T11C] (ssRNA)
RNA: B16 RNA with A24C, A25U, C35U, G36C
B22: Id_ii_S4_P4E.4_K4.3_C4.2_[T-1A]_H4.3_A4.1_F4.1_T4.2_[T11C] (ssRNA)
RNA: B1 RNA with G24C, C25A, U35G, A36C
B23: Id_ii_S4_P4E.3_K4.2_C4.2_[T-1G]_H4.2_A4.1_F4.1_T4.2 (ssRNA)
RNA: B16 RNA with A24C, A25G, C35G, G36U
B24: Id_ii_S4_P4E.3_K4.2_C4.2_[T-1G]_H4.2_A4.1_F4.1_T4.2_[G10T]_[T11C] (ssRNA)
RNA: B16 RNA with A24C, A25G, C35U, G36C
B25: Id_ii_S4_P4E.4_K4.3_C4.2_[T-1G]_H4.3_A4.1_F4.1_T4.2_[G10C]_[T11C] (ssRNA)
RNA: B1 RNA with G24C, C25G, U35C, A36C
B26: Id_ii_S4_P4E.4_K4.3_C4.2_[C-2A]_H4.3_A4.1_F4.1_T4.2_[G10C]_[T11C] (ssRNA)
RNA: B1 RNA with G24A, C25U, U35C, A36C
B27: Id_ii_S4_P4E.4_K4.3_C4.2_[T-1A]_H4.3_A4.1_F4.1_T4.2 (ssRNA)
RNA: B1 RNA with G24C, C25A, U35G, A36U
B28: Id_ii_S4_P4E.4_K4.3_C4.2_[C-2G]_H4.3_A4.1_F4.1_T4.2_[G10C]_[T11C] (ssRNA)
RNA: B1 RNA with C25U, U35C, A36C
B29: Id_ii_S4_P4E.4_K4.3_C4.2_[T-1C]_H4.3_A4.1_F4.1_T4.2_[G10C] (ssRNA)
RNA: B1 RNA with G24C, U35C, A36U
B30: Id_ii_S4_P4E.3_K4.2_C4.2_[T-1C]_H4.2_A4.1_F4.1_T4.2_[G10A] (ssRNA)
RNA: B16 RNA with A24C, A25C, C35A, G36U
B31: Id_ii_S4_P4E.3_K4.2_C4.2_H4.2_A4.1_F4.1_T4.2_[G10A]_[T11C] (ssRNA)
RNA: B16 RNA with A24C, A25U, C35A, G36C
B32: If_S4_P4E.3_K4.2_C4.2_H4.2_A4.1_F4.1_T4.2 (ssRNA)
RNA: B16 RNA with A24C, A25U, C35G, G36U
B33: Id_ii_S4_P4E.3_K4.2_C4.2_[T-1G]_H4.2_A4.1_F4.1_T4.2_[G10A] (ssRNA)
RNA: B16 RNA with A24C, A25G, C35A, G36U
B34: Id_ii_S4_P4E.4_K4.3_C4.2_[C-2A]_[T-1C]_H4.3_A4.1_F4.1_T4.2_[G10C] (ssRNA)
RNA: B1 RNA with G24A, U35C, A36U
B35: Id_ii_S4_P4E.4_K4.3_C4.2_[C-2T]_[T-1A]_H4.3_A4.1_F4.1_T4.2_[G10C]_[T11A] (ssRNA)
RNA: B1 RNA with G24U, C25A, U35C
B36: Id_ii_S4_P4E.3_K4.2_C4.2_H4.2_A4.1_F4.1_T4.2_[G10C] (ssRNA)
RNA: B16 RNA with A24C, A25U, G36U
B37: Id_ii_S4_P4E.3_K4.2_C4.2_[C-2A]_[T-1A]_H4.2_A4.1_F4.1_T4.2_[G10C]_[T11C] (ssRNA)
RNA: B16 RNA with G36C
B38: Id_ii_S4_P4E.3_K4.2_C4.2_[T-1A]_H4.2_A4.1_F4.1_T4.2_[G10C]_[T11A] (ssRNA)
RNA: B16 RNA with A24C, G36A
B39: Id_ii_S4_P4E.4_K4.3_C4.2_[C-2T]_[T-1A]_H4.3_A4.1_F4.1_T4.2 (ssRNA)
RNA: B1 RNA with G24U, C25A, U35G, A36U
B40: Id_ii_S4_P4E.4_K4.3_C4.2_[C-2T]_[T-1A]_H4.3_A4.1_F4.1_T4.2_[G10T]_[T11C] (ssRNA)
RNA: B1 RNA with G24U, C25A, A36C
B41: Id_ii_S4_P4E.4_K4.3_C4.2_[T-1A]_H4.3_A4.1_F4.1_T4.2_[G10C] (ssRNA)
RNA: B1 RNA with G24C, C25A, U35C, A36U
B42: Id_ii_S4_P4E.3_K4.2_C4.2_H4.2_A4.1_F4.1_T4.2_[G10A] (ssRNA)
RNA: B16 RNA with A24C, A25U, C35A, G36U
B43: Id_ii_S4_P4E.4_K4.3_C4.2_[T-1G]_H4.3_A4.1_F4.1_T4.2_[G10C]_[T11A] (ssRNA)
RNA: B1 RNA with G24C, C25G, U35C
B44: Id_ii_S4_P4E.4_K4.3_C4.2_H4.3_A4.1_F4.1_T4.2_[G10C]_[T11A] (ssRNA)
RNA: B1 RNA with G24C, C25U, U35C
B45: Id_ii_S4_P4E.4_K4.3_C4.2_[C-2T]_[T-1A]_H4.3_A4.1_F4.1_T4.2_[G10A]_[T11C] (ssRNA)
RNA: B1 RNA with G24U, C25A, U35A, A36C
B46: Id_ii_S4_P4E.3_K4.2_C4.2_[T-1C]_H4.2_A4.1_F4.1_T4.2_[G10C]_[T11G] (ssRNA)
RNA: B16 RNA with A24C, A25C
B47: Id_ii_S4_P4E.4_K4.3_C4.2_[C-2G]_[T-1C]_H4.3_A4.1_F4.1_T4.2_[G10C]_[T11G] (ssRNA)
RNA: B1 RNA with U35C, A36G
B48: Id_ii_S4_P4E.3_K4.2_C4.2_[C-2A]_[T-1A]_H4.2_A4.1_F4.1_T4.2_[G10T]_[T11C] (ssRNA)
RNA: B16 RNA with C35U, G36C
B49: Id_ii_S4_P4E.4_K4.3_C4.2_[T-1C]_H4.3_A4.1_F4.1_T4.2_[G10C]_[T11C] (ssRNA)
RNA: B1 RNA with G24C, U35C, A36C

Target: T1, PUF4 RNA-binding domain (Saccharomyces cerevisiae, UniProt P25339 537-888)
T1 sequence: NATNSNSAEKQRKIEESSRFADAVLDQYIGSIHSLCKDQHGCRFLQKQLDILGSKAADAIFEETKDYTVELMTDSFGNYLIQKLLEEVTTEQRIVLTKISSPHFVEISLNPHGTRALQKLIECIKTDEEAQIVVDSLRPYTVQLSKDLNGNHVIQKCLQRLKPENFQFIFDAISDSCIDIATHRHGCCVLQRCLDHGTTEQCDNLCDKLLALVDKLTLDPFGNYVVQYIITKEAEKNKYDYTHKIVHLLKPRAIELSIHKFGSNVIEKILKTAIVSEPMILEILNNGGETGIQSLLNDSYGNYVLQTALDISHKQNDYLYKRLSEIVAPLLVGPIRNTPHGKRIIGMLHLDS
Assay: Mg; RNA-MaP; 20 mM Na-HEPES pH 7.4, 30 mM KOAc, 0.75 mM MgCl2, 0.1% Tween-20, 5% glycerol, 0.1 mg/mL BSA, 2 mM DTT; 25 C; 0.0125-409.6 nM protein
Settings: tags: N-His6-TEV cleaved; C-SNAP kept, Cy3B-labelled; label: tethered on chip by stalled RNA polymerase

Binder | Kd [nM]
B1 | 28.5
B2 | 0.535
B3 | > 2300
B4 | 1210
B5 | 1.54
B6 | > 2300
B7 | > 2300
B8 | 0.647
B9 | 2110
B10 | 0.388
B11 | 728
B12 | 3.13
B13 | 5.29
B14 | 1.91
B15 | 6.57
B16 | 189
B17 | 28.2
B18 | 5.07
B19 | 716
B20 | 12.2
B21 | 6.46
B22 | > 2300
B23 | 8.91
B24 | 13.1
B25 | > 2300
B26 | 14.9
B27 | > 2300

Binder | Kd [nM]
B28 | 1.02
B29 | > 2300
B30 | 4.86
B31 | 15.9
B32 | 8.97
B33 | 12.4
B34 | > 2300
B35 | > 2300
B36 | 5.15
B37 | 47.7
B38 | 23
B39 | > 2300
B40 | > 2300
B41 | > 2300
B42 | 10.8
B43 | > 2300
B44 | 944
B45 | > 2300
B46 | 9.21
B47 | 2000
B48 | 39.7
B49 | 1360
UCUCUUUUUAUUUUUAUCUCUU (ssRNA) [Ib_S1_P5E.1_K5.1_C5.1_H5.1_[G2T]_A5.1_[A7T]_F5.1_T5.1] | > 2300
UCUCUUUAUAUUGUUAUCUCUU (ssRNA) [Ib_S1_P5E.1_K5.1_C5.1_H5.1_[G2A]_A5.1_[A7G]_F5.1_T5.1] | 846
UCUCUUUAUAUUUUUAUCUCUU (ssRNA) [Ib_S1_P5E.1_K5.1_C5.1_H5.1_[G2A]_A5.1_[A7T]_F5.1_T5.1] | 742
UCUCUUUAUAUUCUUAUCUCUU (ssRNA) [Ib_S1_P5E.1_K5.1_C5.1_H5.1_[G2A]_A5.1_[A7C]_F5.1_T5.1] | 801
